Laboratory results taken from patent US20120301404A1.

Experiments:
[1] = target: PIF receptor (pig sarcolemma membranes) (pig); assay: Scatchard analysis of [35S]PIF binding to pig sarcolemma membranes, first site
[2] = target: PIF receptor (mouse; C2C12 membranes and mouse tissue plasma membranes) (mouse (C2C12 myotubes)); assay: cell-based or functional assay
[3] = target: PIF receptor (mouse; C2C12 membranes and mouse tissue plasma membranes) (mouse (C2C12 myotubes)); assay: Scatchard analysis of [35S]PIF binding to mouse gastrocnemius muscle sarcolemma membranes, first site
[4] = target: PIF receptor (human muscle cell line Hs94MU membranes) (human); assay: Scatchard analysis of [35S]PIF binding to Hs94MU human muscle cell membranes, second site
[5] = target: PIF receptor (mouse; C2C12 membranes and mouse tissue plasma membranes) (mouse (C2C12 myotubes)); assay: Scatchard analysis of [35S]PIF binding to mouse soleus muscle plasma membranes, second site
[6] = target: PIF receptor (mouse; C2C12 membranes and mouse tissue plasma membranes) (mouse (C2C12 myotubes)); assay: comparison of the affinity of PIF for muscle cell binding sites with its affinity for the MAC16 monoclonal antibody
[7] = target: PIF receptor (mouse; C2C12 membranes and mouse tissue plasma membranes) (mouse (C2C12 myotubes)); assay: Scatchard analysis of [35S]PIF binding to mouse liver plasma membranes, first site
[8] = target: PIF receptor (mouse; C2C12 membranes and mouse tissue plasma membranes) (mouse (C2C12 myotubes)); assay: Scatchard analysis of [35S]PIF binding to mouse liver plasma membranes, second site
[9] = target: PIF receptor (mouse; C2C12 membranes and mouse tissue plasma membranes) (mouse (C2C12 myotubes)); assay: Scatchard analysis of [35S]PIF binding to mouse soleus muscle plasma membranes, first site
[10] = target: PIF receptor (mouse; C2C12 membranes and mouse tissue plasma membranes) (mouse (C2C12 myotubes)); assay: Scatchard analysis of [35S]PIF binding to mouse heart plasma membranes, second site
[11] = target: PIF receptor (pig sarcolemma membranes) (pig); assay: Scatchard analysis of [35S]PIF binding to pig sarcolemma membranes, second site
[12] = target: PIF receptor (mouse; C2C12 membranes and mouse tissue plasma membranes) (mouse (C2C12 myotubes)); assay: Scatchard analysis of [35S]PIF binding to mouse heart plasma membranes, first site
[13] = target: PIF receptor (mouse; C2C12 membranes and mouse tissue plasma membranes) (mouse (C2C12 myotubes)); assay: Scatchard analysis of [35S]PIF binding to C2C12 membranes, second site (column headed Kaff2 x 10^-9 M)
[14] = target: PIF receptor (human muscle cell line Hs94MU membranes) (human); assay: Scatchard analysis of [35S]PIF binding to Hs94MU human muscle cell membranes, first site
[15] = target: PIF receptor (mouse; C2C12 membranes and mouse tissue plasma membranes) (mouse (C2C12 myotubes)); assay: Scatchard analysis of [35S]PIF binding to C2C12 membranes, first site (column headed Kaff x 10^-10 M; text calls it Kd)
[16] = target: PIF receptor (mouse; C2C12 membranes and mouse tissue plasma membranes) (mouse (C2C12 myotubes)); assay: Scatchard analysis of [35S]PIF binding to mouse gastrocnemius muscle sarcolemma membranes, second site
[17] = target: Proteolysis Inducing Factor (PIF) (mouse (MAC16 cells)); assay: cell-based or functional assay

| Kd [1] [nM] | increased rate of protein degradation in C2C12 myoblasts over 24 and 48 h, effective concentrations [2] [nM] | rate of protein degradation (release of L-[2,6-3H]phenylalanine) in C2C12 myoblasts, concentration of maximal effect at 6 h [2] [nM] | Kd [3] [nM] | Kd [4] [nM] | Kd [5] [nM] | fold greater affinity than binding to a monoclonal antibody [6] [fold] | Kd [7] [nM] | Kd [8] [nM] | Kd [9] [nM] | Kd [10] [nM] | Kd [11] [nM] | Kd [12] [nM] | Kd [13] [nM] | Kd [14] [nM] | Kd [15] [nM] | Kd [16] [nM] | PIF-induced increase in chymotrypsin-like enzyme activity [17] [µM] | PIF-induced protein degradation in murine myotubes [17] [µM] | Molecule |
| --- | --- | --- | --- | --- | --- | --- | --- | --- | --- | --- | --- | --- | --- | --- | --- | --- | --- | --- | --- |
| 0.47 | 0.14 to 1.4 | 0.98 to 1.4 | 0.52 | 1.7 | 0.12 | 10 to 100 | 0.69 | 0.2 | 0.01 | 2.3 | 8.2 | 0.3 | 1.2 | 0.11 | 0.14 | 0.1 | – | – | Proteolysis Inducing Factor (PIF) (ligand) |
| – | – | – | – | – | – | – | – | – | – | – | – | – | – | – | – | – | 10 | 10 | DINGGGATLPQPLYQTAAVLTAGFA [N-terminal synthetic peptide of the PIF receptor (peptide of SEQ ID No. 1)] |
